T1: soluble Homo sapiens CD131 comprising a C-terminal 6xHis tag (human, UniProt P32927 17-438)
T1 construct: truncated after Ser438, C-terminal 6xHis; also called shCD131; shβc
T1 sequence: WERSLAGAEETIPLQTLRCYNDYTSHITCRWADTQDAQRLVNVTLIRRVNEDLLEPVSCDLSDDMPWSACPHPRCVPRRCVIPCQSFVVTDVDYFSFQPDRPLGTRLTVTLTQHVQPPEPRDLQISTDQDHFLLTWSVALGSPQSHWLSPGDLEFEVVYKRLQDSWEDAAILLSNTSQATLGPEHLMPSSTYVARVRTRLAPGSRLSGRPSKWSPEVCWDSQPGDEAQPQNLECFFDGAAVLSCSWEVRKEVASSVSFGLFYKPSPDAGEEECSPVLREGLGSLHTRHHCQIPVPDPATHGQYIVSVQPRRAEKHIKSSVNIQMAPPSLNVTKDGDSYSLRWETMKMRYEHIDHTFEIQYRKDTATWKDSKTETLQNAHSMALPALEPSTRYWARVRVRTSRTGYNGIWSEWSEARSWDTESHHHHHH

B1: 9A2-VR24.10 Fab (Fab, V domains shown)
VH: EVQLLESGGGLVQPGGSLRLSCAASGFTFPWYRVHWVRQAPGKGLEWVSSIHTGSQWTYYADSVKGRFTISRDNSKNTLYLQMNSLRAEDTAVYYCARFYDSFFDIWGQGTMVTVSS
VL: DIQMTQSPSSVSASVGDRVTITCRASQGISSWLAWYQQKPGKAPKLLIYAASSLQSGVPSRFSGSGSGTDFTLTISSLQPEDFATYYCQQANSFPITFGQGTRLEIKR
notes: recombinant Fab
B2: 9A2-VR24.44 Fab (Fab, V domains shown)
VH: B1 VH with H52R, T53S, G54S, S55G, Q56G, W57F, T58P, A61H, D62P
VL: B1 VL
notes: recombinant Fab
B3: 9A2-VR24.30 Fab (Fab, V domains shown)
VH: B1 VH with H52R, T53S, G54S, S55G, Q56G, W57F, T58P, A61N, D62R, S63R
VL: B1 VL
notes: recombinant Fab
B4: 9A2-VR39.02 Fab (Fab, V domains shown)
VH: B1 VH with P30Y, R33H, V34M, H35I, H52N, T53G, G54R, S55G, Q56R, W57V
VL: B1 VL
notes: recombinant Fab
B5: 9A2-VR24.122 Fab (Fab, V domains shown)
VH: B1 VH with H52R, T53S, G54S, S55G, Q56G, W57F, A61N, D62S, S63E
VL: B1 VL
notes: recombinant Fab
B6: 9A2-VR24.84 Fab (Fab, V domains shown)
VH: B1 VH with G54H, S55R, Q56P
VL: B1 VL
notes: recombinant Fab
B7: 9A2-VR24.124 Fab (Fab, V domains shown)
VH: B1 VH with H52R, T53S, G54S, S55G, Q56G, W57F, A61T, D62P, K65R
VL: B1 VL
notes: recombinant Fab
B8: 9A2-VR24.56 Fab (Fab, V domains shown)
VH: B1 VH with H52R, T53S, G54S, S55G, Q56G, W57F, A61N, D62P, S63A, K65R
VL: B1 VL
notes: recombinant Fab
B9: 9A2-VR24.55 Fab (Fab, V domains shown)
VH: B1 VH with H52R, T53S, G54S, S55G, Q56G, W57F, A61N, D62P, G66N
VL: B1 VL
notes: recombinant Fab
B10: 9A2-VR24.91 Fab (Fab, V domains shown)
VH: B1 VH with G54H, S55R, W57V
VL: B1 VL
notes: recombinant Fab
B11: 9A2-VR24.102 Fab (Fab, V domains shown)
VH: B1 VH with H52R, T53S, G54S, S55G, Q56G, W57F, T58P, Y59F, A61N, D62S
VL: B1 VL
notes: recombinant Fab
B12: 9A2-VR24.110 Fab (Fab, V domains shown)
VH: B1 VH with H52R, T53S, G54S, S55G, Q56G, W57F, T58P, A61N, D62N, S63H
VL: B1 VL
notes: recombinant Fab
B13: 9A2-VR24.33 Fab (Fab, V domains shown)
VH: B1 VH with H52R, T53S, G54S, S55G, Q56G, W57F, T58P, A61N, D62H, S63K
VL: B1 VL
notes: recombinant Fab
B14: 9A2-VR39.04 Fab (Fab, V domains shown)
VH: EVQLLESGGGLVQPGGSLRLSCAASGFTFNWFQHIWVRQAPGKGLEWVSSINGRGRVTYYADSVKGRFTISRDNSKNTLYLQMNSLRAEDTAVYYCARFYDSFFDIWGQGTMVTVSS
VL: B1 VL
notes: recombinant Fab
B15: 9A2-VR39.17 Fab (Fab, V domains shown)
VH: B14 VH with N30P, W31F, F32Y, Q33H, H34K, I35V
VL: B1 VL
notes: recombinant Fab
B16: 9A2-VR24.107 Fab (Fab, V domains shown)
VH: B1 VH with H52R, T53S, G54S, S55G, Q56G, W57F, T58P, A61N, D62P, S63F
VL: B1 VL
notes: recombinant Fab
B17: 9A2-VR24.97 Fab (Fab, V domains shown)
VH: B1 VH with H52R, T53S, G54S, S55G, Q56G, W57F, T58P, A61S, D62L
VL: B1 VL
notes: recombinant Fab
B18: 9A2-VR24.81 Fab (Fab, V domains shown)
VH: B1 VH with G54H, S55R, Q56N, W57Y
VL: B1 VL
notes: recombinant Fab
B19: 9A2-VR24.111 Fab (Fab, V domains shown)
VH: EVQLLESGGGLVQPGGSLRLSCAASGFTFPWYRVHWVRQAPGKGLEWVSSIRSSGGFPMYNPHVKGRFTISRDNSKNTLYLQMNSLRAEDTAVYYCARFYDSFFDIWGQGTMVTVSS
VL: B1 VL
notes: recombinant Fab
B20: 9A2-VR24.57 Fab (Fab, V domains shown)
VH: B19 VH with P58T, M59Y, H63K, G66H
VL: B1 VL
notes: recombinant Fab
B21: 9A2-VR39.01 Fab (Fab, V domains shown)
VH: B14 VH with N30F, Q33H, I35V
VL: B1 VL
notes: recombinant Fab
B22: 9A2-VR24.27 Fab (Fab, V domains shown)
VH: B19 VH with M59Y, N61H, P62Q, H63K
VL: B1 VL
notes: recombinant Fab
B23: 9A2-VR39.22 Fab (Fab, V domains shown)
VH: B14 VH with N30Q, F32Y, Q33H, H34V
VL: B1 VL
notes: recombinant Fab
B24: 9A2-VR24.98 Fab (Fab, V domains shown)
VH: B19 VH with M59H, P62S, H63V
VL: B1 VL
notes: recombinant Fab

Numbering of substitutions follows the chain as printed.

The target in this experiment is T1, soluble Homo sapiens CD131 comprising a …. As to the kind of experiment: SPR, Fab over captured shCD131. On the procedure: Binding kinetics were measured using SPR with a BIAcore™ A-100 instrument (GE Healthcare Life Sciences). An anti-C-terminal Hexa-His antibody (3H3) was immobilized on spots 1, 2, 4 and 5 of each flow cell of a CM-5 sensor chip (GE Healthcare Life Sciences) using amine-coupling chemistry (116). […] As shβc is a dimer, kinetics assays were performed with shβc captured on the sensor surface, and purified Fab injected as the analyte. Avidity effects were avoided by the use of Fab rather than whole IgG.
shCD131 was captured on spots 1 and 5 of each flow cell for 2 minutes at a concentration of 0.4 μg/ml. […] For some analysis purified Fab was injected over each flow cell for 3 minutes and dissociation was monitored for a further 10 minutes. Regeneration of the surface was performed after each cycle with a 40 second injection of 25 mM glycine, pH 2.0. The analysis was performed with Fabs at several concentrations between 100 and 0.31 nM, with each concentration analyzed twice and in random order. The analysis was performed at a flow rate of 30 μl/min in HBS-EP buffer (10 mM Hepes, 150 mM NaCl, 3 mM EDTA, 0.005% Tween 20, pH 7.4) at 37° C. Responses from spots 2 and 4 of each flow cell, (in which shβc was not captured, but otherwise treated identically), were subtracted from those of spots 1 and 5 respectively to produce reference subtracted data. Reference subtracted responses from a blank injection comprising buffer alone were subtracted from the resultant sensorgrams to produce double referenced data suitable for kinetic analysis. Double-referenced sensorgrams were fitted using non-linear regression to a model describing 1:1 kinetics, including a term for mass transport limitation. The Rₘₐₓ value was fitted locally to account for slight deviations in the level of sCD131 captured, with association rate (kₐ), dissociation rate (kd) and equilibrium dissociation constant (KD) fitted globally.
Molecule B1 came in with a Kd of 0.372 nM, a koff of 0.00055 s⁻¹ and a kon of 1.48e+06 M⁻¹ s⁻¹.
In the same order, the values of B2 are 0.163 nM, 0.000488 s⁻¹ and 3e+06 M⁻¹ s⁻¹.
For the molecule B3, the Kd was found to be 0.122 nM, the koff came to 0.000464 s⁻¹ and the on-rate (kon) was 3.8e+06 M⁻¹ s⁻¹.
In turn, B4 had a Kd of 0.0877 nM, a koff of 0.000341 s⁻¹ and a kon of 3.89e+06 M⁻¹ s⁻¹.
Consider B5, for which the Kd was 0.353 nM, the koff came to 0.000897 s⁻¹ and the kon was found to be 2.54e+06 M⁻¹ s⁻¹.
Consider B6, for which the Kd turned out to be 0.106 nM, the koff was found to be 0.000418 s⁻¹ and the kon was 3.95e+06 M⁻¹ s⁻¹.
The matching figures for B7: 0.25 nM, 0.00076 s⁻¹ and 2.9e+06 M⁻¹ s⁻¹.
The matching figures for B8: 0.353 nM, 0.000997 s⁻¹ and 2.82e+06 M⁻¹ s⁻¹.
B9: the Kd amounted to 0.369 nM, the koff is 0.000942 s⁻¹ and the kon amounted to 2.55e+06 M⁻¹ s⁻¹.
The matching figures for B10: 0.161 nM, 0.000448 s⁻¹ and 2.78e+06 M⁻¹ s⁻¹.
Molecule B11 had a Kd of 0.188 nM, a koff of 0.000556 s⁻¹ and a kon of 2.95e+06 M⁻¹ s⁻¹.
In the same order, the values of B12 are 0.151 nM, 0.000475 s⁻¹ and 3.15e+06 M⁻¹ s⁻¹.
The matching figures for B13: 0.149 nM, 0.000472 s⁻¹ and 3.16e+06 M⁻¹ s⁻¹.
The molecule B14 came in with a Kd of 0.329 nM, a koff of 0.00117 s⁻¹ and a kon of 3.55e+06 M⁻¹ s⁻¹.
Consider B15, for which the Kd was found to be 0.201 nM, the koff was 0.000566 s⁻¹ and the kon turned out to be 2.81e+06 M⁻¹ s⁻¹.
In the same order, the values of B16 are 0.183 nM, 0.00053 s⁻¹ and 2.89e+06 M⁻¹ s⁻¹.
The matching figures for B17: 0.16 nM, 0.000524 s⁻¹ and 3.2e+06 M⁻¹ s⁻¹.
The matching figures for B18: 0.173 nM, 0.000492 s⁻¹ and 2.85e+06 M⁻¹ s⁻¹.
On to B19, for which binding was put at a Kd of 0.236 nM, the koff is 0.000637 s⁻¹ and the kon stood at 2.7e+06 M⁻¹ s⁻¹.
For the molecule B20, binding was put at a Kd of 0.211 nM, the koff is 0.000841 s⁻¹ and the kon was found to be 4e+06 M⁻¹ s⁻¹.
In the same order, the values of B21 are 0.102 nM, 0.00031 s⁻¹ and 3.04e+06 M⁻¹ s⁻¹.
B22: the dissociation constant (Kd) amounted to 0.17 nM, the off-rate constant (koff) turned out to be 0.000527 s⁻¹ and the on-rate (kon) amounted to 3.1e+06 M⁻¹ s⁻¹.
As for B23, binding was put at a Kd of 0.141 nM, the koff worked out at 0.000441 s⁻¹ and the kon was found to be 3.13e+06 M⁻¹ s⁻¹.
In the case of B24, binding was characterised by a dissociation constant (Kd) of 0.174 nM, the koff amounted to 0.000559 s⁻¹ and the kon amounted to 3.21e+06 M⁻¹ s⁻¹.

(Values after patent US20190062438A1 (CSL, published 2019).)
